From article PMC8346945, “Evaluation of efficacy- versus affinity-driven agonism with biased GLP-1R ligands P5 and exendin-F1” (Biochemical Pharmacology, 2021)

Molecular target: SNAP-GLP-1R (glucagon-like peptide-1 receptor with an N-terminal SNAP-tag), stably expressed in HEK293 cells (UniProt P43220)
Sequence of UniProt P43220 (P43220 24-463): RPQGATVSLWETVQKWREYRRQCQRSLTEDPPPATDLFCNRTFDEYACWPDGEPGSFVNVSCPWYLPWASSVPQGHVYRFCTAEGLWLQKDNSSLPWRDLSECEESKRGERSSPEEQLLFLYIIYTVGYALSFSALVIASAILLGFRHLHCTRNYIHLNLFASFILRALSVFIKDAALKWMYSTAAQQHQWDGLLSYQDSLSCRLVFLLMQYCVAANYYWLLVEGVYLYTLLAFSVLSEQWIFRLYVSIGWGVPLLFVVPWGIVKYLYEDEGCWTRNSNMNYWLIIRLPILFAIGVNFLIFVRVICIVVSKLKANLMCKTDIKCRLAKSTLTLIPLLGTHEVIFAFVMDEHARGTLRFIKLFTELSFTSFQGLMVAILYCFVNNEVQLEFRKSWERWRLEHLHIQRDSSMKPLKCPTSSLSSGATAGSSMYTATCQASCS

“Exendin-4 (from UniProt P26349 48-87) (peptide)” was tested, and the cAMP production in HEK293-SNAP-GLP-1R cells, 30-min stimulation, pEC50 was 9.9 pEC50 (M).
